Data on 16 molecules can be found in publication PMC10720262 (2023).

For the assay, the target named is PfCSP full length (Plasmodium falciparum (isolate NF54), UniProt P19597). As to the kind of experiment: ELISA AUC. Background: An ELISA detects its analyte on a solid surface through an enzyme-linked reagent.
Chain of PfCSP full length (P19597 20-375): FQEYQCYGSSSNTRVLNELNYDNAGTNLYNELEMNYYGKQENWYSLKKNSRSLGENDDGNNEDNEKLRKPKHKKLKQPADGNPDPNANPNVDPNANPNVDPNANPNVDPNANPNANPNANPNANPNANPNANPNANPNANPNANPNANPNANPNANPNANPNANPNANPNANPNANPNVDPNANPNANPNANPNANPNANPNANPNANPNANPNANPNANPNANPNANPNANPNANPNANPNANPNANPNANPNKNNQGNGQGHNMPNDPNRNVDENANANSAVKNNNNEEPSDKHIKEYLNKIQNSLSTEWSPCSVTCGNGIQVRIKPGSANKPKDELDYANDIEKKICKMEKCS

B1: CL-512296 (antibody, V domains shown)
VH: QVQLVESGGGVVQPGRSLRLSCAASGFTFSNYGMHWVRQAPGKGLEWVAVIWYDGSKKFYADSVMGRFTISRDNSKNTLVLQMNSLGAEDTAVYYCARDRGYSGYVFDYWGQGTLVTVSS
VL: QSALTQPASVSGSPGQSIAISCTGTSSDVGGYNFVSWYRHHPGKAPKLMIYDVSNRPSGVSNRFSGSKSGNTASLTISGLQAEDEADYYCCSYAGSCSVFGGGTKLTVL
modifications: peptides N-terminally acetylated and C-terminally amidated
As for B1, the binding score turned out to be 1.86.

B2: CL-512564 (antibody, V domains shown)
VH: QVQLVESGGGVVQPGRSLRLSCAASGFTFSNSGMHWVRQAPGKGLEWVAIIWYDGSHKFYADSVKGRFTISRDNSKNTLYLQMNSLRIEDTAMYYCVRSYNWNYPVRGDYKYGMDVWGQGTTVTVSS
VL: DIQMTQSPSTLSASVGDRVTITCRASQSISSWLAWFQQKPGKAPNLLIYMASSLQSGVPSRFSGSGSGTEFTLTISSLQPDDFATYYCQQFNTYWTFGQGTKVEIK
modifications: peptides N-terminally acetylated and C-terminally amidated
Regarding B2, the binding score amounted to 2.14.

B3: CL-459404 (antibody, V domains shown)
VH: QVQLVASGGGVVQPGRSLRLSCAASGFTFSNYGMHWVRQAPGKGLEWVAIIWYDGSKKYYSDSVKGRFTISRDNSKNTLNLQMNSLRAEDTAVYYCARAYGSGSYSDDYYGMDVWGQGTTVTVSS
VL: DIQMTQSPSTLSASVGDRVTITCRASQSISPWLAWFQQKPGKAPKLLIYKASNLESGVPSRFSGSGSGTEFTLTISSLQPDDFATYYCQQYYTYWTFGQGTKVEIK
modifications: peptides N-terminally acetylated and C-terminally amidated
For B3, the binding score was found to be 2.4.

B4: CL-513462 (antibody, V domains shown)
VH: QVQLVESGGGVVQPGRSLRVSCAASGFTFSNYGMYWVRQAPGKGLEWVAVIWHDGTNKFYEDSVKGRFTISRDNSKNTLYLQMNSLRAEDTAVYYCARAGYFQGSGSFLDYWGQGTLVTVSS
VL: DIQMTQSPSTLSASVGDRVTITCRASQSISSWLAWYQQKPGKAPKLLIYKASSLESGVPSRFSGSGSGTEFTLTISSLQPDDFATYFCQQYSSYWTFGQGTKVEIK
modifications: peptides N-terminally acetylated and C-terminally amidated
Take B4: the binding score was found to be 2.47.

B5: CL-531969 (antibody, V domains shown)
VH: QVQLVESGGGVVQPGRSLRLSCAASGFTFSSSGMHWVRQAPGMGLEWVAIIWYDGSNKFYADSVKGRFTISRDNSKNTLYLQMNSLRAEDTAVYYCARAYVSGNYGDNYGMDVWGQGTTVTVSS
VL: DIQMTQSPSTLSASVGDRVTITCRASQSISSWLAWFQQKPGKAPKLLIYKASSLESGVPSRFSGSGSGTEFTLTINSLQPDDFATYFCQQYNYYWTFGQGTKVEIK
modifications: peptides N-terminally acetylated and C-terminally amidated
B5 came in with a binding score of 2.5.

B6: CL-531912 (antibody, V domains shown)
VH: LVQLVESGGGVVQPGRSLRLSCAASGFTFSSSGMHWVRQAPGKGLEWVAIIWYDGSNKFYADSVKGRFTISRDNSKNTLYLQMNSLRAEDTAVYYCARAYVSGSHGDKYGMDVWGQGTTVTVSS
VL: DIQMTQSPSTLSASVGDRVTITCRASQSISSWLAWFQQKPGKAPKLLIYKASSLESGVPSRFSGSGSGTEFTLTINSLQPDDFATYFCQQYNNYWTFGQGTKVEIK
modifications: peptides N-terminally acetylated and C-terminally amidated
Regarding B6, the binding score stood at 2.64.

B7: CL-445635 (antibody, V domains shown)
VH: QVQLVESGGAVVQPGTSLRLSCAASGFTFSNYGMHWVRQAPGKGLQWVALIWYNGNNKFYAESVEGRFIISRDNSKNILFLQMNSLSAEDTAVYYCARAFYYDSGNYLDYWGPGSLVTVSS
VL: DIQMTQSPSSVSASVGDRVTITCRARQDISSRLAWYQQKPGKAPKILIYGASSLQSGVPSRFSASGSGTDFTLTISSLQPEDFATYYCQQANSFPWTFGQGTKVEIK
modifications: peptides N-terminally acetylated and C-terminally amidated
B7: the binding score was 2.4.

B8: CL-531237 (antibody, V domains shown)
VH: QVQLVESGGGVVQPGTSLRLSCVASGFTFSNFGIHWFRQAPGKGLEWVSLIWYDGKNKFYAESVTGRFTISRDNSKNTVYLQMSSLRAEDTAVYYCARSYYYDSGNYFDYWGQGTLVTVSS
VL: DIQMTQSPSSVSASVGDRITITCRASQGISSRLAWFQQKPGKAPNFLIYGTSSLQSGVPSRFSGSGSGTDFTLTISSLQPEDSATYYCQQANSYPWTFGQGTKVEIK
modifications: peptides N-terminally acetylated and C-terminally amidated
The molecule B8 displayed a binding score of 2.18.

B9: CL-513041 (antibody, V domains shown)
VH: QEHLVESGGGVVQPGRSLRLSCAASGFTFSNSGMHWVRQAPGKGLEWVAVIWYDGSNKFYADSVRGRFTISRDNSNNTLYLQMNSLRAEDTALYYCARDRLFSGSWNWFDPWGQGTLVTVSS
VL: EIVLTQSPATLSLSPGERATLSCRASQSVSTYLAWYQQKPGQAPRLLIYDASNRATGIPARFSGSGSGTDFTLTISSLEPEDFAVYYCQQRSNWFTFGGGTKVEIK
modifications: peptides N-terminally acetylated and C-terminally amidated
Molecule B9 yielded a binding score of 2.13.

B10: CL-440582 (antibody, V domains shown)
VH: QVQLVESGGGVVQPGRSLRLSCAASGFTLNNYGIHWVRQAPGKGLEWLSLIWYDGSNKFYADSVKGRFTVSRDNSQNTVSLHMSSLSVDDTAVYYCARPGIGVPGDKYTMDVWGQGTTVTVSS
VL: DIQMTQSPSTLSASVGDRVTITCRASQTISAWLAWYQQKLGKAPKILIYKASILESGVPSRFSGSGSGTEFTLTINSLQPDDFATYYCQQYNYDWTFGQGTKVEIN
modifications: peptides N-terminally acetylated and C-terminally amidated
As to B10, the binding score was 2.6.

B11: CL-531325 (antibody, V domains shown)
VH: QVHLVESGGGVVQPGKSLRLSCAASGFTFSNFGMHWVRQAPGKGLEWVALIWYDGSHKFYADSVQGRFTISRDNSKNTLFLQMNSLRAEDTAIYYCAKVISYGSVNYYNNYKYTMDVWGQGTTVTVSS
VL: not shown
modifications: peptides N-terminally acetylated and C-terminally amidated
For B11, the binding score was 2.55.

B12: CL-509370 (antibody, V domains shown)
VH: QVQLVESGGGVVQPGRSLRLSCAASGFTFSSYGMHWVRQAPGKGLEWVAVIWYDGSNKFYADSVKGHFTISRDNSKNTLYLQMNSLRAEDTAVYYCARDGRDLRGTGPYFDPWGQGTLVTVSS
VL: EIVMTQSPATLSVSPGERAILSCRASQSVSSNLAWYQQKPGQAPRLLIYGASIRATGIPARFRGSGSGTEFTLTISILQSEDFAVYYCQQYNNWITFGQGTRLEIK
modifications: peptides N-terminally acetylated and C-terminally amidated
Take B12: the binding score amounted to 2.09.

B13: CL-512469 (antibody, V domains shown)
VH: QMQLVESGGGVVQPGRSLTLSCEASGFTFSNYGMHWVRQAPGKGLEWVAIIWFDGSHRFYADAVEGRFTISRDNSKNTLFLQMTSLRAEDAAVYYCARVGQFSSSSWGAFDIWGQGTVVTVSS
VL: EIVLTQSPGTLSLSPGESVTLSCRASQIISNTHLAWYQQKPGQAPSLLIYGASSRATGIPDRFSGSGSGTDFTLTISRLEPEDFAVYYCQQYGRLWTFGQGTKVEIK
modifications: peptides N-terminally acetylated and C-terminally amidated
For the molecule B13, the binding score came to 1.99.

B14: CL-511771 (antibody, V domains shown)
VH: QVQLVESGGGVVQPGRSLRLSCAASGFTFSNSGMHWVRQAPGKGLEWVAIIWYDGSNKYYAESMKGRFTISRDNSKNTLYLQMNSLRAEDTAVYYCARDGTTNAFDLWGQGTMVTVSP
VL: not shown
modifications: peptides N-terminally acetylated and C-terminally amidated
In the case of B14, the binding score is 2.64.

B15: CL-444639 (antibody, V domains shown)
VH: QVQLVESGGGVVQPARSLRLSCAASGFTFSSYGMHWVRQAPGKGLEWVAVIWYDGSNKYYADSVKGRFTISRDNSKNTLYLQMNSLRAEDTAVYYCAKVGDFYGSGSYPHYYGMDVWGQGTTVTVSS
VL: not shown
modifications: peptides N-terminally acetylated and C-terminally amidated
In turn, B15 had a binding score of 2.4.

B16: CL-513701 (antibody, V domains shown)
VH: QVQLVESGGGVVQTGRSLRLSCTASGFIFSNYGMYWVRQAPGKGLEWVALIWYDGSNKYYVDSVKGRFTISRDNSKNTLYLQMNSLRAEDTAVYYCARAGKYSGSGSYLDSWGQGTLVTVSS
VL: DIQMTQSPSSVSASVGDRVTITCRASQGISSWLAWYQQKPGKAPKLLIYTASSLQSGVPSRFSGSGSGTDFTLTISSLQPDDFATYFCQQYSRYWTFGQGTKVEIK
modifications: peptides N-terminally acetylated and C-terminally amidated
B16 registered a binding score of 2.54.
